PMC5388602 (Biochemistry, 2016)

Target: the molecule itself
Test: crystal structure

B1: SrpA sialoglycan binding region (SrpABR), tag cleaved, as crystallised (domain or fragment)
chain: RRATDTTPPTITVPSDIIAYRGEEFEFYFEITDDSGQVKNIELSTFGKPLGLNWLEYSEDNFNVPGNATSDNPLRVRVHGTVPLNEPIPADKNRAQFTRTIRAWDAAGNVSSNITFVIKYRAQTDKYNPADPTITYVDRLSSLSPSEKNAVEAAVRAANPQIPAAARITVSANGTVTITYPDSSTDTITANRVVKDLASSR
stoichiometry N: 2
